In patent US5876691A, “Antibody against carcionembryonic antigen (CEA)” (Cancer Research Campaign Technology Limited, priority 1993, dated 1999):

Tests used:
[1] = biological target: carcinoembryonic antigen (CEA) (human) (UniProt P06731); experiment: fluorescence quench, purified soluble scFv
[2] = biological target: carcinoembryonic antigen (CEA) (human) (UniProt P06731); experiment: summary of the affinity comparison with A5B7
[3] = biological target: carcinoembryonic antigen (CEA) (human) (UniProt P06731); experiment: 125I-labelled scFv applied to a 1 ml CEA/Sepharose column (1 mg CEA)
[4] = biological target: carcinoembryonic antigen (CEA) (human) (UniProt P06731); experiment: radiolabelled scFv applied to a CEA coupled Sepharose 4B column, gamma counting
[5] = biological target: carcinoembryonic antigen (CEA) (human) (UniProt P06731); experiment: fluorescence quench
[6] = biological target: carcinoembryonic antigen (CEA) (human) (UniProt P06731); experiment: CEA column, after radiolabelling with 125I
[7] = biological target: carcinoembryonic antigen (CEA) (human) (UniProt P06731); experiment: unbound fraction of 125I-MFE-23 His reapplied to the CEA column
[8] = biological target: carcinoembryonic antigen (CEA) (human) (UniProt P06731); experiment: 125I-labelled scFv applied to a CEA coupled Sepharose 4B column, gamma counting
[9] = biological target: carcinoembryonic antigen (CEA) (human) (UniProt P06731); experiment: known amount of antibody applied to the CEA affinity column after 6 months storage at 4 C
[10] = biological target: carcinoembryonic antigen (CEA) (human) (UniProt P06731); experiment: IMAC purified MFE-23 His, 1 mg applied to the CEA affinity column after 6 months storage at 4 C
[11] = biological target: carcinoembryonic antigen (CEA) (human) (UniProt P06731); experiment: IMAC purified MFE-23 His, 2 mg applied to the CEA affinity column after 6 months storage at 4 C
[12] = biological target: carcinoembryonic antigen (CEA) (human) (UniProt P06731); experiment: IMAC purified MFE-23 His, 0.5 mg applied to the CEA affinity column after 6 months storage at 4 C
[13] = biological target: carcinoembryonic antigen (CEA) (human) (UniProt P06731); experiment: MFE-23 His purified by CEA antigen affinity chromatography, 1 mg applied to the CEA affinity column
[14] = biological target: carcinoembryonic antigen (CEA) (human) (UniProt P06731); experiment: CEA affinity column, after 6 months storage at 4 C, compared with MFE-23 His purified on the same column
[15] = biological target: carcinoembryonic antigen (CEA) (human) (UniProt P06731); experiment: 125I-labelled scFv applied to a CEA coupled Sepharose 4B column, gamma counting; total recovered 1710 cpm
[16] = biological target: carcinoembryonic antigen (CEA) (human) (UniProt P06731); experiment: radiolabelled control scFv applied to a CEA coupled Sepharose 4B column, gamma counting
[17] = biological target: carcinoembryonic antigen (CEA) (human) (UniProt P06731); experiment: 99mTc-labelled MFE-cys applied to a 1 ml CEA/Sepharose column (1 mg CEA), bound material eluted with 3M ammoniumthiocyanate
[18] = biological target: T1, CEA (Homo sapiens, UniProt P06731); experiment: Dissociation constant (Kd) by fluorescence quench; details: binding to CEA
T1 sequence (P06731 35-702): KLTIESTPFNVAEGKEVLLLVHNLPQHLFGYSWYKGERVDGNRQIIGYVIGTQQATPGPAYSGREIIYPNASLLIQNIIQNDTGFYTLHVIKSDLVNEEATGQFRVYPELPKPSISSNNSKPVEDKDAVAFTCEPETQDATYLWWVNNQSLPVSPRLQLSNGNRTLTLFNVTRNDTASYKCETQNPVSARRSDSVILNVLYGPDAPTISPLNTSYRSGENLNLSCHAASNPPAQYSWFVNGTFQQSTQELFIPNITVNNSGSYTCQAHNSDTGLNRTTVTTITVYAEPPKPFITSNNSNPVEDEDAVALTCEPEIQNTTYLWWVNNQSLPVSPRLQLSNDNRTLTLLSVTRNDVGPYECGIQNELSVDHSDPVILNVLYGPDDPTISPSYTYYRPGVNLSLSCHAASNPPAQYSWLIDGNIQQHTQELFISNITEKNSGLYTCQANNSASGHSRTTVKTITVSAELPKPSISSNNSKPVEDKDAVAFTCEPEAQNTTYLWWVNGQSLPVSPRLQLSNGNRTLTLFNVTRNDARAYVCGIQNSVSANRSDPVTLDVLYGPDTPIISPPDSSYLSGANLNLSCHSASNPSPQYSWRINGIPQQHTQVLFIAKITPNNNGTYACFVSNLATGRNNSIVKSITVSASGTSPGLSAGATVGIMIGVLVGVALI
Source text: (§1) MFE-23 was subcloned for expression as a soluble scFv linked to a C-terminal myc tag to aid identification during protein purification. […] The specificity against a range of normal human tissues was examined and the only reactivity was weak and with normal large bowel--this is in contrast to many anti-CEA monoclonal antibodies which commonly show cross reaction with a variety of normal tissues^7.

[19] = system: human colorectal adenocarcinomas; experiment: Immunohistochemistry with purified scFv on colorectal adenocarcinomas; assay type: binding; details: second antibody against myc tag, positive/tested tumours
Source text: as §1

[20] = system: normal human tissues; experiment: Immunohistochemistry specificity against normal human tissues; assay type: binding
Source text: as §1

[21] = system: LS174T human colorectal tumour xenografts; experiment: Tumour localisation in vivo, Example 1; parameters: species or system nude mice; details: 125 Iodine labelled, FIG. 2, 29 and 35 hours after injection
Source text: Tumour localisation in vivo was studied using LS174T human colorectal tumour xenografts in nude mice.

[22] = Isoelectric focusing (pI of scFvs); assay type: physicochemical; details: Amphaline PAG plate pH 3.5-9.5
Source text: The isoelectric focusing points of the scFvs were obtained using an Amphaline PAG plate pH 3.5-9.5 (Pharmacia) in accordance with manufacturers instructions.

[23] = Stability of radiolabelled product by gel filtration on S-100 / SDS PAGE; assay type: physicochemical; details: 125-I labelled, gel filtration on S-100
[24] = biological target: T1, CEA; experiment: CEA binding of radiolabelled product on CEA/Sepharose column
Description: 75 μg of A5-SC and MFE-23 were iodinated with 0.5 mCi of 125-I using the Chloramine T/L-Tyrosine method^20. […] The stability of the radiolabelled products was tested by gel filtration on S-100.
MFE-cys was radiolabelled with ^99m Tc using a ^99m Tc-D-glucarate transfer method^22. 1 ml of ^99m Tc sodium pertechnetate (40.5 mCi) was added to 12.5 mg of monopotassium D-glucarate, 16.8 mg of sodium bicarbonate and 100 μg of stannous chloride (stannous chloride was made up directly before use at a concentration of 0.2 mg/ml). This solution was left for 1 min at room temperature. Then 0.5 ml was mixed with 200 μg MFE-cys in PBS/1 mM EDTA. The mixture was incubated at room temperature for 30 min and then applied to a PD 10 column (Pharmacia; primed with 3% human serum albumin in PBS) to separate the radiolabelled protein from the free pertechnetate. The efficiency of ^99m Tc uptake was tested by thin layer chromatography, using acetonitrile/water (30:20) as running solvent. An aliquot (100 μl) of diluted radiolabelled scFv (1:30 in PBS/Tween 20) was applied to a 1 ml CEA-sepharose column, containing 1 mg of CEA, to test CEA-binding. The column was washed with 8 volumes of PBS/0.05% Tween 20 and bound material was obtained by adding 3M ammoniumthiocyanate. Further, the stability of the labelled scFv was tested by applying the product (diluted 1:30) to Sephacryl S-100. To test the stability of the radiolabelled product in vivo serum taken from mice injected with the labelled scFv 24 h after administration was also applied to Sephacryl S-100. Stability of the ^99m Tc-labelled product was also tested by gel autoradiography as follows: radiolabelled MFE-cys was subjected to SDS-PAGE using a 15% non-reducing acrylamide gel. The protein was then Western blotted onto Immobilon P (Millipore), and visualised by autoradiography using Kodak X-Omatic cassette and Hyperfilm-MP film (Amersham).
Thin layer chromatography (TLC) was performed to measure % ^125 I incorporation. Antigen binding was also assessed by applying a dilution of the radiolabel to a CEA coupled Sepharose 4B (1 mg CEA; 1 ml column volume). The unbound fraction was washed through with 2 column volumes of PBS and the bound fraction with the same volume of 3M ammonium thiocyanate. A control scFv B1.8 which is not specific for CEA and MFE-23 containing a c-myc tag (MFE-23 myc) were tested as a comparison. The unbound and bound fractions were analysed for ^125 I activity using a gamma counter. Stability assessments were carried out by applying a sample of the radiolabel and unlabelled product to a 15% SDS PAGE minigel. The ^125 I-MFE-23 His was visualised by autoradiography and the unlabelled product by Coomassie blue staining. ^125 I-MFE-23 His was also applied to a 100 ml Sephacryl S-100 column (115×1 cm). 1.5 ml fractions were collected and counted for ^125 I activity.

[25] = system: LS174T human colorectal carcinoma xenograft; experiment: Xenograft biodistribution study, Example 2; assay type: in vivo, nude mice; details: for percent injected activity per gram of tissue, tumour: 125-I labelled, i.v. tail vein
Description: Radiolabelled antibody was administered via the tail vein of nude mice bearing the LS174T human colorectal carcinoma xenograft^21. Each mouse received 4.3 μg/30.12 μCi of A5-SC or 4.3 μg/7.73 μCi of MFE-23. Mice were sacrificed at 24 h and 48 h, and tissues were removed and assessed for activity using a gamma counter. 4 mice were used for each time point.

“MFE-23 soluble scFv linked to a C-terminal myc tag” showed a Kd [1] of 2.5 nM, a fold affinity against A5B7 [2] of 10 times and a percent of counts recovered [3] of 38.7%. For the same molecule, the counts bound to the column [4] was 23000 cpm and the percent of recovered counts bound to the column [4] was 56%.

A5B7 monoclonal anti-CEA antibody gave a Kd [5] of 25 nM.

With “MFE-23 His (MFE-23 scFv containing 6xHis at the C-terminus)” the antigen binding retained [6] was greater than 75%, the percent of loaded counts in the bound fraction on reapplication [7] was 58% and the percent of recovered counts in the bound fraction [8] was 75%. For the same molecule, the mean % bound specific activity [9] was 75%, the Bound [10] was 0.68 mg and the Specific activity (%) [10] was 75%. For the same molecule, the Bound [11] was 0.76 mg, the Specific activity (%) [11] was 69% and the Bound [12] was 0.4 mg. It also gave a Specific activity (%) [12] of 81%, a Bound [13] of 0.83 mg and a Specific activity (%) [13] of 89%. It also gave an antigen binding retained [14] of 84% and a counts in the bound fraction [15] of 1280 cpm.

control scFv B1.8 gave a counts bound to the column [16] of 1300 cpm and a percent of recovered counts bound to the column [16] of 10%.

In the case of “A5-SC (scFv derived from monoclonal antibody A5B7)”, the percent of counts recovered [3] is reported as 30.8%.

Molecule MFE-cys (cysteine-tagged MFE-23 scFv) has a percent of counts recovered in the bound fraction [17] of 55%.

B1: MFE-23: anti-CEA single chain Fv selected from a bacteriophage library, sequence of FIG. 3 (SEQ ID No. 2) (protein)
scFv: ETVIMKYLLPTAAAGLLLLAAQPAMAQVKLQQSGAELVRSGTSVKLSCTASGFNIKDSYMHWLRQGPEQGLEWIGWIDPENGDTEYAPKFQGKATFTTDTSSNTAYLQLSSLTSEDTAVYYCNEGTPTGPYYFDYWGQGTTVTVSSGGGGSGGGGSGGGGSENVLTQSPAIMSASPGEKVTITCSASSSVSYMHWFQQKPGTSPKLWIYSTSNLASGVPARFSGSGSGTSYSLTISRMEAEDAATYYCQQRSSYPLTFGAGTKLELKRAA
In the case of B1, the Kd [18] is reported as 2.5 ± 1.3 nM, the “typical CEA-reactive pattern in human colorectal adenocarcinomas” value [19] is reported as 10/10 and the “binding to normal tissues” value ([20]; liver, kidney, large intestine, tonsil, lung, brain, testis, ovary, cervix, breast, blood films, placenta, spleen, thyroid, oesophagus, stomach, pancreas, lymph node, skeletal muscle) is reported as “did not bind”. For the same molecule, the “reactivity with normal large bowel” value ([20]; only reactivity seen in range of normal human tissues) was “weak”, the “tumour imaging (gamma camera)” value [21] was “only tumours are visible” and the pI [22] was 4.5-5.5. The “stability after iodination, S-100 elution profile” value [23] was “one peak”, the “percent of counts recovered on binding to CEA/Sepharose” value ([24]; 125-I radiolabelled products, Example 2) was 38.7% and the “counts in bound fraction of CEA column, % of total counts recovered” value ([24]; 125I radiolabelled, Example 5) was 56%. The “counts in unbound fraction of CEA column, % of total counts recovered” value ([24]; 125I radiolabelled, Example 5) was 43%, the “percent injected activity per gram of tissue, tumour” value ([25]; 24 hours) was 3.2% and the “percent injected activity per gram of tissue, tumour” value ([25]; 48 hours) was 1.2%. The “localisation in liver and spleen” value ([25]; in contrast with A5-SC) was “did not show localisation”.
